Reference: paper PMC6506218

Biological target: full-length AgrC-I Q305A in lipid nanodiscs (S. aureus)
Experiment: fluorescence polarisation

| Substance | Kd |
| --- | --- |
| AIP-I (peptide) | 56 nM |
| AIP-II (peptide) | 151 nM |
